According to article PMC5669500, “Scaffolding the cup-shaped double membrane in autophagy” (PLoS Computational Biology, 2017):

Experiments:
Assay in all cases: pull-down; 20 μg GST-Atg13 (351–458) immobilised on 30 μL Glutathione Sepharose 4B; Atg17-Atg31-Atg29 complex at 10 μM; 4°C, 1 hour; 20 mM Tris pH 8, 150 mM NaCl, 0.1 mM TCEP; 3 washes; SDS-PAGE
Conditions in all cases: both partners purified
[1] = biological target: T1, Atg17-Atg31-Atg29 complex with Atg17 mutant M3 (K8D/R14D/K249D) (Saccharomyces cerevisiae, UniProt Q06410 1-417; Q12421 1-196; Q12092 1-213, K8D | R14D | K249D)
T1 construct: Atg17, Saccharomyces cerevisiae; Atg31, Saccharomyces cerevisiae; Atg29, Saccharomyces cerevisiae; a TEV cleavage site follows the His6 tag; Mutations introduced into the Atg17-Atg31-Atg29 construct by quick-change mutagenesis; source: E. coli BL21 (DE3), co-expressed from pST39, purified (Ni-NTA, Superose 6); copies: 2 + +
T1 sequence (looked up) 1: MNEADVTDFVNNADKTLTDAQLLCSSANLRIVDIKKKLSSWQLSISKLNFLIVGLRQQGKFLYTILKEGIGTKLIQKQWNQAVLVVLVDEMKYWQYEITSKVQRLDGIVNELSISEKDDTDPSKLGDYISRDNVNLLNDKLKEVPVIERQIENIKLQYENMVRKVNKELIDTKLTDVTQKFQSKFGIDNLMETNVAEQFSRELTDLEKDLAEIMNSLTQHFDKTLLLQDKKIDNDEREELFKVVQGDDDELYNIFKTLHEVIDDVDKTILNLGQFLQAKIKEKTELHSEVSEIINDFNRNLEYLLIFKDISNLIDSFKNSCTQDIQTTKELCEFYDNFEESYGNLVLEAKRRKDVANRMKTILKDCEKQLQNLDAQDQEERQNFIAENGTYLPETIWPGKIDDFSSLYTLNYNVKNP
T1 sequence (looked up) 2: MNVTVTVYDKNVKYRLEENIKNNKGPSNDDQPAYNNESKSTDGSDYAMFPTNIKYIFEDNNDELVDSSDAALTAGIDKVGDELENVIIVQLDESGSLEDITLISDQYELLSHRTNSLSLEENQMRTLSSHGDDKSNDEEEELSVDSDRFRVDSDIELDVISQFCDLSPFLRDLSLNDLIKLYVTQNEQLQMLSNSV
T1 sequence (looked up) 3: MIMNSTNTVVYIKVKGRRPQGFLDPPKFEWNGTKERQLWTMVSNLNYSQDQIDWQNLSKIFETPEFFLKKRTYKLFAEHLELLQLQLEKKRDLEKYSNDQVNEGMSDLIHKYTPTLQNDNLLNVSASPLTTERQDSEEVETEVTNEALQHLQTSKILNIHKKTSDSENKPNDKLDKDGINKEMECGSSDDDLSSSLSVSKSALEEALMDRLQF

[2] = biological target: T2, Atg17-Atg31-Atg29 complex with Atg17 mutant M4 (K164D/K173D/R299D) (Saccharomyces cerevisiae, UniProt Q06410 1-417; Q12421 1-196; Q12092 1-213, K164D | K173D | R299D)
T2 construct: Atg17, Saccharomyces cerevisiae; Atg31, Saccharomyces cerevisiae; Atg29, Saccharomyces cerevisiae; a TEV cleavage site follows the His6 tag; Mutations introduced into the Atg17-Atg31-Atg29 construct by quick-change mutagenesis; source: E. coli BL21 (DE3), co-expressed from pST39, purified (Ni-NTA, Superose 6); copies: 2 + +
T2 sequence (looked up) 1: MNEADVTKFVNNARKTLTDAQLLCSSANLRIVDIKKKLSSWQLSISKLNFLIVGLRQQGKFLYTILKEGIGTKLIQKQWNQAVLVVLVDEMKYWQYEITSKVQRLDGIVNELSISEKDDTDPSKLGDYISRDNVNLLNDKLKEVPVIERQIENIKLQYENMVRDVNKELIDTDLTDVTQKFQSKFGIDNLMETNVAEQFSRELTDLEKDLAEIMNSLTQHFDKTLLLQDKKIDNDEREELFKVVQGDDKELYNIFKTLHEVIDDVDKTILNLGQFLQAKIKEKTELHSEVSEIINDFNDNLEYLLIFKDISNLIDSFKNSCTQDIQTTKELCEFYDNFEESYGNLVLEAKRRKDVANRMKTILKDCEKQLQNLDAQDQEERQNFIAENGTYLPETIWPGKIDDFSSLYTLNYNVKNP
T2 sequence (looked up) 2: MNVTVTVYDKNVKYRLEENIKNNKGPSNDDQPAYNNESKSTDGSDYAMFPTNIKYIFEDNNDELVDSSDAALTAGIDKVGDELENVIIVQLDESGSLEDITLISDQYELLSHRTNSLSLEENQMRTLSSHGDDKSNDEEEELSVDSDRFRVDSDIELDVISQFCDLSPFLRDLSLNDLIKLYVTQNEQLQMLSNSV
T2 sequence (looked up) 3: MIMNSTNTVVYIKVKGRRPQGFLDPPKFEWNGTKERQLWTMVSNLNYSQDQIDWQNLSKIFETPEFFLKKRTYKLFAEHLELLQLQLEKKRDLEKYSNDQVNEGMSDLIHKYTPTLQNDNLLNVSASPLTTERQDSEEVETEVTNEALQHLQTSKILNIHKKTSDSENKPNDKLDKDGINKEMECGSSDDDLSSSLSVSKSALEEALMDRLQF

[3] = biological target: T3, Atg17-Atg31-Atg29 complex with Atg17 mutant M2 (K318D/K329D/Y93E/W94E) (Saccharomyces cerevisiae, UniProt Q06410 1-417; Q12421 1-196; Q12092 1-213, K318D | K329D | Y93E | W94E)
T3 construct: Atg17, Saccharomyces cerevisiae; Atg31, Saccharomyces cerevisiae; Atg29, Saccharomyces cerevisiae; a TEV cleavage site follows the His6 tag; Mutations introduced into the Atg17-Atg31-Atg29 construct by quick-change mutagenesis; source: E. coli BL21 (DE3), co-expressed from pST39, purified (Ni-NTA, Superose 6); copies: 2 + +
T3 sequence (looked up) 1: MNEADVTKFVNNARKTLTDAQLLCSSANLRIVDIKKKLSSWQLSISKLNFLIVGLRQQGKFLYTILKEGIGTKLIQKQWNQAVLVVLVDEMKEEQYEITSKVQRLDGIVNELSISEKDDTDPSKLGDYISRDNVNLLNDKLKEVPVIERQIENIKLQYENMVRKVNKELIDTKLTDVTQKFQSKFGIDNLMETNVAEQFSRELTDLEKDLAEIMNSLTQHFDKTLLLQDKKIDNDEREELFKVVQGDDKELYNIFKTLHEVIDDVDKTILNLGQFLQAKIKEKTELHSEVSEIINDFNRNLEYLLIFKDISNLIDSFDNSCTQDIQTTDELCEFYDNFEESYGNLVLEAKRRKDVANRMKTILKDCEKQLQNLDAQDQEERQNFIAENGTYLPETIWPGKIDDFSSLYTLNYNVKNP
T3 sequence (looked up) 2: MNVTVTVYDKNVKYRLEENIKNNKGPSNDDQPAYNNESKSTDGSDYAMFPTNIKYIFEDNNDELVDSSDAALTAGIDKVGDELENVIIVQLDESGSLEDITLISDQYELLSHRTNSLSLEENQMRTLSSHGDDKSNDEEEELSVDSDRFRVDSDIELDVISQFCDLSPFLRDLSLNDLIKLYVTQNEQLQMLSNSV
T3 sequence (looked up) 3: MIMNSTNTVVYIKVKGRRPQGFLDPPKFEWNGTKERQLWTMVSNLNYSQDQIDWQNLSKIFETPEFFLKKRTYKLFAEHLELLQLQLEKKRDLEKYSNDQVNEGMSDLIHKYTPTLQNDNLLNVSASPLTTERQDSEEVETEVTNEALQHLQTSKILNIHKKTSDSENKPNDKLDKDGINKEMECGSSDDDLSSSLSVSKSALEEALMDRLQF

binding result [1]: binds
binding result [2]: binds
binding result [3]: binds
B1: GST-Atg13 (351–458) (domain or fragment, Saccharomyces cerevisiae, UniProt Q06628 351-458, looked up)
chain: TRANSFEPQSWQKKVYPISRPVQPFKVGSIGSQSASRNPSNSSFFNQPPVHRPSMSSNYGPQMNIEGTSVGSTSKYSSSFGNIRRHSSVKTTENAEKVSKAVKSPLQP
notes: a TEV cleavage site follows the GST tag; source: recombinant from pGST2 vector, purified (Glutathione Sepharose 4B, HiLoad Superdex 200 16/60); not shown: GST, N-terminal, kept
